# Article PMC12328718
# Target: T1, SHMT2 K281S-R284S K302S;R305S (UniProt P34897)
# T1 sequence: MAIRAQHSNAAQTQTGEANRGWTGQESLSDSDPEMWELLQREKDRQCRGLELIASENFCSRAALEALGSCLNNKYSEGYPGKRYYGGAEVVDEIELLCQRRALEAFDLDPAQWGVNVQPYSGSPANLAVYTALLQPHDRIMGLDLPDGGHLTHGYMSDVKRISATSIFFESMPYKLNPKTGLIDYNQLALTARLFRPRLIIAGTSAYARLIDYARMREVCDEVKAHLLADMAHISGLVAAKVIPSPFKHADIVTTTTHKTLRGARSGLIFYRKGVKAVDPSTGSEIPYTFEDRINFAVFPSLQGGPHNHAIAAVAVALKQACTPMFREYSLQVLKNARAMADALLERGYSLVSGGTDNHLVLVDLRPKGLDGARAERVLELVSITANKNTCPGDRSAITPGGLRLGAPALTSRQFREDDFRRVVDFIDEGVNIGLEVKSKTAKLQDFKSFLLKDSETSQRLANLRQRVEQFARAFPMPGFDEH
# Assay: EMSA
# Conditions: EMSA: 20 mM HEPES pH 7.4, 150 mM NaCl, 20 ug/ml BSA, 0.1 ug tRNA, RNase inhibitor, 8% glycerol, 25 C, 30 min; 4% native PAGE in 0.5x TBE
sequence,measurement,value
GGGAUAAAGAAAAAAGCGGUGAGUGGGCGAACUACAAUUCCCAAAAGGCCACAAAGGGGCCACCACUACGCAUGCGUAGAUCCCUCCCGUUAGCUUUGGCGCCUCAGCGAGCUCUUCUCGCGCAUGCGUUCUCCGAACGGUCUUCUUCCGACAGCUUGCUGCCCUAGACCAGAGUUGGUGGCUGGACCUCCUGCGACUUCCGAGUUGCG [UTR2 RNA],Kd,1600 nM
